Target: ZZ-CBM3 (Staphylococcus aureus)
Test: pull-down; ZZ-CBM3 pre-anchored on discs of cellulose hydrogel (8Cell, 14Cell, 18Cell; 5 mm, 30 mg); 100 uL of IgG (0.312-10.0 uM) in TST buffer incubated 18 h at 37 °C; free IgG in the supernatant by absorbance at 280 nm (NanoDrop), bound IgG by mass balance; triplicates

Substance: Human normal immunoglobulin (IgG) (antibody)
- grafting yield relative to the initial amount contacted with the modified hydrogels: 26 to 89%
- stoichiometry N (mol IgG per mol ZZ-CBM3): 1

— article PMC8227779
